T1: EsCas13d, nuclease-dead (Eubacterium siraeum, UniProt B0MS50, R295A;H300A;R849A;H854A)
T1 sequence: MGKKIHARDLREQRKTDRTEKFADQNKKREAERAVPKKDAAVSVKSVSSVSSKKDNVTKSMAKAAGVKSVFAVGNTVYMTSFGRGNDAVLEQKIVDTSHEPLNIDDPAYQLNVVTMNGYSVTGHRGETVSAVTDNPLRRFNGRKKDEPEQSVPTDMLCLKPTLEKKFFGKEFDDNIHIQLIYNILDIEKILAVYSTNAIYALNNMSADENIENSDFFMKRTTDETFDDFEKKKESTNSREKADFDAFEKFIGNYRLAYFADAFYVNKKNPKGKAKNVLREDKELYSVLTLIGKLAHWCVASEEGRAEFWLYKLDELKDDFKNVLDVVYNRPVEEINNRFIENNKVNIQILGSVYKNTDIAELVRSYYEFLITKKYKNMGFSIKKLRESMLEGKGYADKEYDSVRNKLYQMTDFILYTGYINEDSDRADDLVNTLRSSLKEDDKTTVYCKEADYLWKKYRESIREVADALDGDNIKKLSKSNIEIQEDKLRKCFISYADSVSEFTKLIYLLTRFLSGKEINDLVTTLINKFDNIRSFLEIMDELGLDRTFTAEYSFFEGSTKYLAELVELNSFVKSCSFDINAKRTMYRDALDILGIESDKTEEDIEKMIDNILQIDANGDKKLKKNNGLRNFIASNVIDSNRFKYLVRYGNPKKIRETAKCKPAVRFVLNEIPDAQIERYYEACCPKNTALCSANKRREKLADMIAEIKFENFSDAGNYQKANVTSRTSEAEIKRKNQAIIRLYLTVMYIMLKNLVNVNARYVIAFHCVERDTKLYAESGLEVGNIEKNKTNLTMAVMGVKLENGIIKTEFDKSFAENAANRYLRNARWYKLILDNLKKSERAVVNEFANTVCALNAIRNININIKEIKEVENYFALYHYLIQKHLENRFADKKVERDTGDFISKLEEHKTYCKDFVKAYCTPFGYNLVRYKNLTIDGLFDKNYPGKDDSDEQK

B1: target 1 insA 3' of 22,insA 3' of 6 (mixed)
RNA 1: CACCCGUGCAAAAAUGCAGGGGUCUAAAACUGAGCGGAUAACCUCUCUAUGG
RNA 2: GGGAAUGGAUCCACAUCUACGAAUUCGUACACAUAGAGAGGUUAUCCAGCUCACCGAGAUCGGAAGAGCACACGU
B2: target 1 insC 3' of 17,insU 3' of 2 (mixed)
RNA 1: CACCCGUGCAAAAAUGCAGGGGUCUAAAACUGAGCGGAUAACCUCUCUAUGG
RNA 2: GGGAAUGGAUCCACAUCUACGAAUUCGUACCAUAGCAGAGGUUAUCCGCUCUACCGAGAUCGGAAGAGCACACGU
B3: target 3 insU 3' of 9,insG 3' of 9 (mixed)
RNA 1: CACCCGUGCAAAAUUGCAGGGGUCUAAAACGACCUGAAUAUUUCAGAUCAAA
RNA 2: GGGAAUGGAUCCACAUCUACGAAUUCGUUUUUGAUCUGAAAUAUGUUCAGGUCUGCAGAUCGGAAGAGCACACGU
B4: target 3 insU 3' of 16,insC 3' of 3 (mixed)
RNA 1: CACCCGUGCAAAAUUGCAGGGGUCUAAAACGACCUGAAUAUUUCAGAUCAAA
RNA 2: GGGAAUGGAUCCACAUCUACGAAUUCGUUUUUGAUCUUGAAAUAUUCAGGCUCUGCAGAUCGGAAGAGCACACGU
B5: target 3 insU 3' of 18,insC 3' of 11 (mixed)
RNA 1: CACCCGUGCAAAAUUGCAGGGGUCUAAAACGACCUGAAUAUUUCAGAUCAAA
RNA 2: GGGAAUGGAUCCACAUCUACGAAUUCGUUUUUGAUUCUGAAACUAUUCAGGUCUGCAGAUCGGAAGAGCACACGU
B6: target 3 G3U,U8A (mixed)
RNA 1: CACCCGUGCAAAAUUGCAGGGGUCUAAAACGACCUGAAUAUUUCAGAUCAAA
RNA 2: GGGAAUGGAUCCACAUCUACGAAUUCGUUUUUGAUCUGAAAUAAUCAGUUCUGCAGAUCGGAAGAGCACACGU
B7: target 3 insU 3' of 22,insU 3' of 3 (mixed)
RNA 1: CACCCGUGCAAAAUUGCAGGGGUCUAAAACGACCUGAAUAUUUCAGAUCAAA
RNA 2: GGGAAUGGAUCCACAUCUACGAAUUCGUUUUUUGAUCUGAAAUAUUCAGGUUCUGCAGAUCGGAAGAGCACACGU
B8: target 3 U7C,U8G (mixed)
RNA 1: CACCCGUGCAAAAUUGCAGGGGUCUAAAACGACCUGAAUAUUUCAGAUCAAA
RNA 2: GGGAAUGGAUCCACAUCUACGAAUUCGUUUUUGAUCUGAAAUAGCCAGGUCUGCAGAUCGGAAGAGCACACGU
B9: target 3 A5U,C6A (mixed)
RNA 1: CACCCGUGCAAAAUUGCAGGGGUCUAAAACGACCUGAAUAUUUCAGAUCAAA
RNA 2: GGGAAUGGAUCCACAUCUACGAAUUCGUUUUUGAUCUGAAAUAUUAUGGUCUGCAGAUCGGAAGAGCACACGU
B10: target 3 insA 3' of 8,insA 3' of 3 (mixed)
RNA 1: CACCCGUGCAAAAUUGCAGGGGUCUAAAACGACCUGAAUAUUUCAGAUCAAA
RNA 2: GGGAAUGGAUCCACAUCUACGAAUUCGUUUUUGAUCUGAAAUAUAUCAGGAUCUGCAGAUCGGAAGAGCACACGU
B11: target 3 insC 3' of 13,insG 3' of 2 (mixed)
RNA 1: CACCCGUGCAAAAUUGCAGGGGUCUAAAACGACCUGAAUAUUUCAGAUCAAA
RNA 2: GGGAAUGGAUCCACAUCUACGAAUUCGUUUUUGAUCUGACAAUAUUCAGGUGCUGCAGAUCGGAAGAGCACACGU
B12: target 3 insA 3' of 7,insC 3' of 4 (mixed)
RNA 1: CACCCGUGCAAAAUUGCAGGGGUCUAAAACGACCUGAAUAUUUCAGAUCAAA
RNA 2: GGGAAUGGAUCCACAUCUACGAAUUCGUUUUUGAUCUGAAAUAUUACAGCGUCUGCAGAUCGGAAGAGCACACGU
B13: target 3 C6G,U7G (mixed)
RNA 1: CACCCGUGCAAAAUUGCAGGGGUCUAAAACGACCUGAAUAUUUCAGAUCAAA
RNA 2: GGGAAUGGAUCCACAUCUACGAAUUCGUUUUUGAUCUGAAAUAUGGAGGUCUGCAGAUCGGAAGAGCACACGU
B14: target 3 insC 3' of 9,insG 3' of 7 (mixed)
RNA 1: CACCCGUGCAAAAUUGCAGGGGUCUAAAACGACCUGAAUAUUUCAGAUCAAA
RNA 2: GGGAAUGGAUCCACAUCUACGAAUUCGUUUUUGAUCUGAAAUACUUGCAGGUCUGCAGAUCGGAAGAGCACACGU
B15: target 3 C1U,U2A (mixed)
RNA 1: CACCCGUGCAAAAUUGCAGGGGUCUAAAACGACCUGAAUAUUUCAGAUCAAA
RNA 2: GGGAAUGGAUCCACAUCUACGAAUUCGUUUUUGAUCUGAAAUAUUCAGGAUUGCAGAUCGGAAGAGCACACGU
B16: target 3 C1A,C16U (mixed)
RNA 1: CACCCGUGCAAAAUUGCAGGGGUCUAAAACGACCUGAAUAUUUCAGAUCAAA
RNA 2: GGGAAUGGAUCCACAUCUACGAAUUCGUUUUUGAUUUGAAAUAUUCAGGUAUGCAGAUCGGAAGAGCACACGU
B17: target 3 C1G,U2A (mixed)
RNA 1: CACCCGUGCAAAAUUGCAGGGGUCUAAAACGACCUGAAUAUUUCAGAUCAAA
RNA 2: GGGAAUGGAUCCACAUCUACGAAUUCGUUUUUGAUCUGAAAUAUUCAGGAGUGCAGAUCGGAAGAGCACACGU
B18: target 3 C16U (mixed)
RNA 1: CACCCGUGCAAAAUUGCAGGGGUCUAAAACGACCUGAAUAUUUCAGAUCAAA
RNA 2: GGGAAUGGAUCCACAUCUACGAAUUCGUUUUUGAUUUGAAAUAUUCAGGUCUGCAGAUCGGAAGAGCACACGU
B19: target 3 insA 3' of 6,insC 3' of 3 (mixed)
RNA 1: CACCCGUGCAAAAUUGCAGGGGUCUAAAACGACCUGAAUAUUUCAGAUCAAA
RNA 2: GGGAAUGGAUCCACAUCUACGAAUUCGUUUUUGAUCUGAAAUAUUCAAGGCUCUGCAGAUCGGAAGAGCACACGU
B20: target 3 U2C,C6A (mixed)
RNA 1: CACCCGUGCAAAAUUGCAGGGGUCUAAAACGACCUGAAUAUUUCAGAUCAAA
RNA 2: GGGAAUGGAUCCACAUCUACGAAUUCGUUUUUGAUCUGAAAUAUUAAGGCCUGCAGAUCGGAAGAGCACACGU
B21: target 3 insG 3' of 2,insA 3' of 1 (mixed)
RNA 1: CACCCGUGCAAAAUUGCAGGGGUCUAAAACGACCUGAAUAUUUCAGAUCAAA
RNA 2: GGGAAUGGAUCCACAUCUACGAAUUCGUUUUUGAUCUGAAAUAUUCAGGUGCAUGCAGAUCGGAAGAGCACACGU
B22: target 3 insG 3' of 5,insG 3' of 1 (mixed)
RNA 1: CACCCGUGCAAAAUUGCAGGGGUCUAAAACGACCUGAAUAUUUCAGAUCAAA
RNA 2: GGGAAUGGAUCCACAUCUACGAAUUCGUUUUUGAUCUGAAAUAUUCAGGGUCGUGCAGAUCGGAAGAGCACACGU
B23: target 3 C1A,U2A (mixed)
RNA 1: CACCCGUGCAAAAUUGCAGGGGUCUAAAACGACCUGAAUAUUUCAGAUCAAA
RNA 2: GGGAAUGGAUCCACAUCUACGAAUUCGUUUUUGAUCUGAAAUAUUCAGGAAUGCAGAUCGGAAGAGCACACGU

The data set deals with T1, EsCas13d, nuclease-dead. As to the kind of experiment: crRNA (strand 1, pre-loaded); Mg2+; 40 mM Tris-HCl pH 7.5, 150 mM NaCl, 6 mM MgCl2, 1 mM DTT, 0.1% Tween-20, 0.2 mg/ml BSA; 25 C; 10 min per concentration, then washed. Conditions: tags: His6-TwinStrep-SUMO cleaved; N-terminal SNAP kept (SNAP-Surface 488); label: 3' end held by stalled T7 RNA polymerase.
The Kd is the concentration at which binding is half-saturated. For the molecule B1, the Kd is 22.2 ± 1.3 nM. Under B2 stands 55 ± 18 nM. Then B3, with 89.5 ± 24.5 nM; and B4, with 64.5 ± 10 nM; and B5, with 49 ± 9 nM. Under B6 stands 89 ± 14.5 nM; under B7, 27.2 ± 4.15 nM; under B8, 73.5 ± 12.5 nM. In turn, B9 had a Kd of 29.9 ± 2.7 nM. Turning to B10, binding was put at a Kd of 73 ± 18.5 nM. Then B11, with 50 ± 11 nM. Molecule B12 showed a Kd of 48.5 ± 8 nM.

The molecule B13 yielded a Kd of 46.5 ± 4.5 nM. Then B14, with 88 ± 21 nM.

As to B15, binding was characterised by a dissociation constant (Kd) of 86 ± 24 nM. Under B16 stands around 91 nM; under B17, 4.6 ± 0.7 nM. Under B18 stands 82.5 ± 14 nM. On to B19, for which the Kd was 7.7 ± 0.6 nM. Compared with the last molecule, the Kd is about 11-fold lower. Under B20 stands 39 ± 7 nM. B21 showed a Kd of 54.2 ± 6.65 nM. Then B22, with 37 ± 9.5 nM; and B23, with 49 ± 6.5 nM.

(Values after PMC10786891, “Massively parallel profiling of RNA-targeting CRISPR-Cas13d”.)
